Measured values published in publication PMC11570498.
pKd: −log10 of the molar value.

Columns and labels:
[1] = biological target: Chlamydomonas reinhardtii Rubisco (CrRubisco) (Chlamydomonas reinhardtii (endogenous in Chlamydomonas cells)) (UniProt P00877); assay: SPR; Rubisco immobilised as bait, fragments as analyte (prey); Biacore T100/T200, 25 °C; analyte injected at 15 μl/min for 30 s, 360 s dissociation; fit of y = Bmax·x/(KD + x); apparent KD; triplicate
[2] = biological target: Chlorella sorokiniana Rubisco holoenzyme (CsRubisco) (Chlorella sorokiniana UTEX1230 (endogenous in Chlorella cells)) (UniProt W8SUA8); assay: as above
[3] = biological target: Chlorella sorokiniana Rubisco holoenzyme (CsRubisco) (Chlorella sorokiniana UTEX1230 (endogenous in Chlorella cells)) (UniProt W8SUA8); assay: native gel or EMSA; native PAGE gel-shift assay; Rubisco and fragments mixed for 30 min at room temperature; 50 mM Tris-HCl pH 8.0, 50 mM NaCl (Fig. 3a); 4-20% gels, 4 h at 100 V, 4 °C
[4] = biological target: Chlorella sorokiniana Rubisco holoenzyme (CsRubisco) (Chlorella sorokiniana UTEX1230 (endogenous in Chlorella cells)) (UniProt W8SUA8); assay: cryo-EM structure; 0.5 μM CsRubisco and 16 μM α3–α4 in 200 mM sorbitol, 50 mM HEPES, 50 mM KOAc, 2 mM Mg(OAc)2, 1 mM CaCl2, pH 6.8; D4 map of the holoenzyme and C1 map after symmetry expansion

Sequence of Chlamydomonas reinhardtii Rubisco (CrRubisco) (Chlamydomonas reinhardtii (endogenous in Chlamydomonas cells)) (P08475 46-185 limits assumed, chain 2 of 2, other chains not shown): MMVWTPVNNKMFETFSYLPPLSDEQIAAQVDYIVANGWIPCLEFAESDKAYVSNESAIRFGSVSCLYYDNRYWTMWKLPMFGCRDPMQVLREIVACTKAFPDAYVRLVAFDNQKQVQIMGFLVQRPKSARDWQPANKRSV

| pKd [1] | pKd [2] | K0.5 (half-occupancy) [3] | percent of the CsRbcL sites occupied [4] | Substance |
| --- | --- | --- | --- | --- |
| 3.97 | 3.99 |  |  | CsLinker α3 fragment (residues 142–207) (domain or fragment) |
| 5.89 | 5.92 | 1.2 µM | 23% | CsLinker α3–α4 fragment (residues 142–272) (domain or fragment) |
